Reference: PMC11594918, “Kinetic Features of Degradation of R-Loops by RNase H1 from Escherichia coli”

Columns and labels:
RNase H1 D10N (RH1 D10N) [1] = biological target: T1, RNase H1 D10N (RH1 D10N) (Escherichia coli, UniProt P0A7Y4 1-155, D10N); test: MST; 10 mM Mg2+; MST: 40 mM Tris-HCl pH 7.9, 40 mM KCl, 10 mM MgCl2, 25 C; R-loop 0.5 uM, RH1 D10N 0.05-30 uM (RNAP MST conditions not stated separately); conditions: protein: recombinant, tags: N-terminal 6xHis, label: 5'-FAM on RNA, bubble
T1 sequence: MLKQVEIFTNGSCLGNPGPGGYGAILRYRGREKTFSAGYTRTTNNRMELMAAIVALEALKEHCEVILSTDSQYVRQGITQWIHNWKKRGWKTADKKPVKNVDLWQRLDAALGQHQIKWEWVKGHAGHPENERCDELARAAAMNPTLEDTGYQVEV

RNA polymerase (RNAP) = RNA polymerase (RNAP) (Escherichia coli, UniProt P0A7Z4;P0A8V2;P0A8T7;P0A800 1-329;1-1342;1-1407;2-91); test: MST; MST: 40 mM Tris-HCl pH 7.9, 40 mM KCl, 10 mM MgCl2, 25 C; R-loop 0.5 uM, RH1 D10N 0.05-30 uM (RNAP MST conditions not stated separately); conditions: protein: recombinant; tags: N-terminal His (pVS10 plasmid); chain copies: 2;1;1;1; label: 5'-FAM on RNA; three strands 1:1:1 (nontemplate DNA, template DNA, RNA); bubble; 11 bp hybrid
RNase H1 D10N (RH1 D10N) [2] = biological target: T1, RNase H1 D10N (RH1 D10N); test: MST; 10 mM Mg2+; saturation not reached, low limit estimate; MST: 40 mM Tris-HCl pH 7.9, 40 mM KCl, 10 mM MgCl2, 25 C; R-loop 0.5 uM, RH1 D10N 0.05-30 uM (RNAP MST conditions not stated separately); conditions: protein: recombinant, tags: N-terminal 6xHis, label: 5'-FAM on RNA, three strands 1:1:1, bubble
[3] = three strands 1:1:1, 10-11 nt hybrid

Chain of RNA polymerase (RNAP) (P0A7Z4 whole entry, chain 1 of 4): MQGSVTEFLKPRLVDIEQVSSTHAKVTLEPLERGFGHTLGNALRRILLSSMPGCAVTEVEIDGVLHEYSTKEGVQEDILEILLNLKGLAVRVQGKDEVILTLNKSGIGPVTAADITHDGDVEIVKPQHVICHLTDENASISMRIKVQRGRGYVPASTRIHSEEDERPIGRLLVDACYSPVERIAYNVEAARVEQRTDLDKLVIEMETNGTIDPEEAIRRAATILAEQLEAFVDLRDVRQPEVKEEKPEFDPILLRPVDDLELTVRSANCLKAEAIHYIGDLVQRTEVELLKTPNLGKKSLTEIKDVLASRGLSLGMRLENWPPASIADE
Chain of RNA polymerase (RNAP) (P0A8V2 whole entry, chain 2 of 4): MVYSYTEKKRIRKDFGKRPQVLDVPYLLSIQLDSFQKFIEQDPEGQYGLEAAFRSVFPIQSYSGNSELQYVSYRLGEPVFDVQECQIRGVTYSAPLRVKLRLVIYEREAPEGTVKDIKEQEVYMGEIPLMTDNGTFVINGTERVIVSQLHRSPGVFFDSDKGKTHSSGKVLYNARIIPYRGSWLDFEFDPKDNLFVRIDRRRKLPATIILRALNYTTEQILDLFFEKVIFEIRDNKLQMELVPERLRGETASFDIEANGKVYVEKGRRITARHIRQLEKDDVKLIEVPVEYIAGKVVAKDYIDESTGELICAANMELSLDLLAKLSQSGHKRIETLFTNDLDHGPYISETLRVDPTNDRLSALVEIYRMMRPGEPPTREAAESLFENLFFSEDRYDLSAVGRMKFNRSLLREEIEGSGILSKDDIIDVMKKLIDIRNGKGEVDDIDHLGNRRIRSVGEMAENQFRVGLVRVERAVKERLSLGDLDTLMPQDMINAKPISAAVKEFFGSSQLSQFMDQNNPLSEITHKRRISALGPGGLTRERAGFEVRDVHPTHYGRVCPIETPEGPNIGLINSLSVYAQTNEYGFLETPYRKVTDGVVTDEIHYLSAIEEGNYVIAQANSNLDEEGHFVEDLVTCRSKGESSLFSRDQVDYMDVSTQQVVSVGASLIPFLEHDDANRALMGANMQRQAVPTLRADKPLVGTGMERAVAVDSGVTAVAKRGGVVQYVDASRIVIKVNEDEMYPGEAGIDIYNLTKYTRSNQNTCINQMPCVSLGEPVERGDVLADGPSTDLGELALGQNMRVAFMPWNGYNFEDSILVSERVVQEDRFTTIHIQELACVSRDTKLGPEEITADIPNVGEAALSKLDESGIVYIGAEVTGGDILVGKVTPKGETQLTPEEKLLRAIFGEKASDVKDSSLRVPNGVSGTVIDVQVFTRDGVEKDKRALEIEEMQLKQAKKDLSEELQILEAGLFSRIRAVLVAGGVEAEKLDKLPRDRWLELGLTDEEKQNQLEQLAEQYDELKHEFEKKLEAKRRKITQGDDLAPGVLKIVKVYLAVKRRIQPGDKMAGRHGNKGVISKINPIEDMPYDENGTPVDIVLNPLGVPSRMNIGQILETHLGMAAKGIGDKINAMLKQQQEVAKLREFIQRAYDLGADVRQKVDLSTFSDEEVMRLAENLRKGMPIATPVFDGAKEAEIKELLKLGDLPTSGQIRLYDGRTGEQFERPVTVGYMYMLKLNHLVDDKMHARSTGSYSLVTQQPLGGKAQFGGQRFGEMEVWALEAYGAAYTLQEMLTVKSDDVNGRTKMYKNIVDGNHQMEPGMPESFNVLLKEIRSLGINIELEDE
Chain of RNA polymerase (RNAP) (P0A8T7 whole entry, chain 3 of 4): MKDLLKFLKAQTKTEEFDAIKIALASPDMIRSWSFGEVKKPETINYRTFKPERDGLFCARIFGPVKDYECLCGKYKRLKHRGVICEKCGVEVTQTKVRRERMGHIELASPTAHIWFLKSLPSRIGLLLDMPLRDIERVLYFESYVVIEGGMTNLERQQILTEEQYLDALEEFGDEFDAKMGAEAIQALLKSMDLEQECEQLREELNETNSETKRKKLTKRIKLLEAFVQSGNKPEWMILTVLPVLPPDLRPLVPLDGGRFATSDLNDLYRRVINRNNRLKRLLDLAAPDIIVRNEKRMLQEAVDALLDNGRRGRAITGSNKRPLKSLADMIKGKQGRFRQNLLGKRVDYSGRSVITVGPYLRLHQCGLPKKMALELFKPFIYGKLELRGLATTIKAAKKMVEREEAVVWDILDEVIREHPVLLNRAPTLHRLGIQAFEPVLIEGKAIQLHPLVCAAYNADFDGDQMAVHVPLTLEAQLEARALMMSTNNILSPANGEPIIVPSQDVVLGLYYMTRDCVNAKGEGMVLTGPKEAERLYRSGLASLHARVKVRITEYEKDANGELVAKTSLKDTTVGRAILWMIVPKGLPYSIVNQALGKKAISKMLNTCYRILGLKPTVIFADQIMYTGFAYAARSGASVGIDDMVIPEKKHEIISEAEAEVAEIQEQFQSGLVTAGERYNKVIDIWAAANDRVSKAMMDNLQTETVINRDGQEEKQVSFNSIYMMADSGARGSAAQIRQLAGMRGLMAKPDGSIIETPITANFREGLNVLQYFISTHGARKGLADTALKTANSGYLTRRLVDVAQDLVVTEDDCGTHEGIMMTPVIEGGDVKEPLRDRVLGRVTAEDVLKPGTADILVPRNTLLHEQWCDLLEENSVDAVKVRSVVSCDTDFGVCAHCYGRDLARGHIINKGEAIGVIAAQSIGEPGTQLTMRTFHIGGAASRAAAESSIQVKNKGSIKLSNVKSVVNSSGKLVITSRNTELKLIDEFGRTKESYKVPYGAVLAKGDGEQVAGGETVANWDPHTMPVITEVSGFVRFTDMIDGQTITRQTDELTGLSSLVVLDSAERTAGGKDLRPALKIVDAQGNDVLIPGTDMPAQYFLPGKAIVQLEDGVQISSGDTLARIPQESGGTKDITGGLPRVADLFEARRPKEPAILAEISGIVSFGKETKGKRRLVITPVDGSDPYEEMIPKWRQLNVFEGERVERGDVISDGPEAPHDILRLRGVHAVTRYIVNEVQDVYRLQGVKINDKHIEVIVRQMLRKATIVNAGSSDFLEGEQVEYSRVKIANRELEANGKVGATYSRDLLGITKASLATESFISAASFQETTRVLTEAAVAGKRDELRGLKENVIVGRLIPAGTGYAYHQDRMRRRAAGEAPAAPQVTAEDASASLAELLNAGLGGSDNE
Chain of RNA polymerase (RNAP) (P0A800 2-91, chain 4 of 4): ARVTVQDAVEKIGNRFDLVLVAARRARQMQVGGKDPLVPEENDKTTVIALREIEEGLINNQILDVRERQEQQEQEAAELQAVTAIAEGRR

B1: R-loop 1 (mixed)
DNA 1: ACTTGTAGCGATCTAAGGTCTTTTTTTTTGGCTCATTGCAGTAGAGTAGC
DNA 2: GCTACTCTACTGCAATGAGCTGCTCTCTGGAACCTTAGATCGCTACAAGT
RNA: CUCACAUCCAGAGAGCA
RNase H1 D10N (RH1 D10N) [1]; three strands 1:1:1 (nontemplate DNA, template DNA, RNA), 11 bp hybrid
  Kd: 1.2 ± 0.4 µM
RNA polymerase (RNAP)
  Kd: 0.3 ± 0.1 µM

B2: R-loop 3 (mixed)
DNA 1: ACTTGTAGCGATCTAAGGTCTTTTTTTTTGCCTCATTGCAGTAGAGTAGC
DNA 2: GCTACTCTACTGCAATGAGCTGCTCTCTGGAACCTTAGATCGCTACAAGT
RNA: CUCACAUCCAGAGAGCA
RNase H1 D10N (RH1 D10N) [1]; [3]
  Kd: 1.5 ± 0.4 µM

B3: R-loop 2 (mixed)
DNA 1: ACTTGTAGCGATCTAAGGTCTTTTTTTTTAGCTCATTGCAGTAGAGTAGC
DNA 2: GCTACTCTACTGCAATGAGCTGCTCTCTGGAACCTTAGATCGCTACAAGT
RNA: CUCACAUCCAGAGAGCA
RNase H1 D10N (RH1 D10N) [1]; [3]
  Kd: 1.1 ± 0.4 µM

B4: R-loop 8 (mixed)
DNA 1: ACTTGTAGCGATCTAAGGTCTTTTTTTTTTTTTTTTTTTTTTTTTTTTTGGCTCATTGCAGTAGAGTAGC
DNA 2: GCTACTCTACTGCAATGAGTGCTTGATGGAGGGATGTGTAGTGGAATAGATACCTTAGATCGCTACAAGT
RNA: CUCACAUCUAUUCCACUACACAUCCCUCCAUCAAGCA
RNase H1 D10N (RH1 D10N) [2]; extended hybrid
  Kd: ~9.3 µM

B5: R-loop 9 (mixed)
DNA 1: ACTTGTAGCGATCTAAGGTCTTTTGGGTGGGTGGGTGGGTTTTTTTTTTGGCTCATTGCAGTAGAGTAGC
DNA 2: GCTACTCTACTGCAATGAGTGCTTGATGGAGGGATGTGTAGTGGAATAGATACCTTAGATCGCTACAAGT
RNA: CUCACAUCUAUUCCACUACACAUCCCUCCAUCAAGCA
RNase H1 D10N (RH1 D10N) [2]; extended hybrid, G4 in nontemplate DNA (annealed in 140 mM KCl)
  Kd: ~5.1 µM

B6: R-loop 6 (mixed)
DNA 1: ACTTGTAGCGATCTAAGGTCTTTTTTTTTTTTTTGGCTCATTGCAGTAGAGTAGC
DNA 2: GCTACTCTACTGCAATGAGCTGCTCTCTGGACTCGAACCTTAGATCGCTACAAGT
RNA: CUCACAUCGAGUCCAGAGAGCA
RNase H1 D10N (RH1 D10N) [2]; 16 nt hybrid
  Kd: ~9.7 µM

B7: R-loop 7 (mixed)
DNA 1: ACTTGTAGCGATCTAAGGTCTTTTTTTTTTTTTTTTTTTGGCTCATTGCAGTAGAGTAGC
DNA 2: GCTACTCTACTGCAATGAGCTGGGATGTGTAGTGGAATAGAACCTTAGATCGCTACAAGT
RNA: CUCACAUCUAUUCCACUACACAUCCCA
RNase H1 D10N (RH1 D10N) [2]; extended hybrid
  Kd: ~6.7 µM
